In publication PMC8594078:
Like-named read-outs stand apart in the source and are kept apart here.

B1: Apt 14 (ssDNA)
DNA: ATAGTCCCTGGCGTGCTTCCGCGAGAGTTCGACATTCCCGAAAGTACGACGAAAGTCCAGAGCAGGTACGGTGTCA
B2: Apt 6 (ssDNA)
DNA: ATAGTCCCTGGCGTGCTTGACAGCAACACGAACACTGAACGTTCTTAACAAGCCTGGCAGAGCAGGTACGGTGTCA

Assays:
[1] = target: T1, biotinylated human ACE2 (Acrobiosystems EP-105 kit) (Homo sapiens, UniProt Q9BYF1 18-740); assay: competition ELISA
[2] = target: T1, biotinylated human ACE2 (Acrobiosystems …); assay: competition ELISA; remark: listed apart in the source

T1 sequence (Q9BYF1 18-740): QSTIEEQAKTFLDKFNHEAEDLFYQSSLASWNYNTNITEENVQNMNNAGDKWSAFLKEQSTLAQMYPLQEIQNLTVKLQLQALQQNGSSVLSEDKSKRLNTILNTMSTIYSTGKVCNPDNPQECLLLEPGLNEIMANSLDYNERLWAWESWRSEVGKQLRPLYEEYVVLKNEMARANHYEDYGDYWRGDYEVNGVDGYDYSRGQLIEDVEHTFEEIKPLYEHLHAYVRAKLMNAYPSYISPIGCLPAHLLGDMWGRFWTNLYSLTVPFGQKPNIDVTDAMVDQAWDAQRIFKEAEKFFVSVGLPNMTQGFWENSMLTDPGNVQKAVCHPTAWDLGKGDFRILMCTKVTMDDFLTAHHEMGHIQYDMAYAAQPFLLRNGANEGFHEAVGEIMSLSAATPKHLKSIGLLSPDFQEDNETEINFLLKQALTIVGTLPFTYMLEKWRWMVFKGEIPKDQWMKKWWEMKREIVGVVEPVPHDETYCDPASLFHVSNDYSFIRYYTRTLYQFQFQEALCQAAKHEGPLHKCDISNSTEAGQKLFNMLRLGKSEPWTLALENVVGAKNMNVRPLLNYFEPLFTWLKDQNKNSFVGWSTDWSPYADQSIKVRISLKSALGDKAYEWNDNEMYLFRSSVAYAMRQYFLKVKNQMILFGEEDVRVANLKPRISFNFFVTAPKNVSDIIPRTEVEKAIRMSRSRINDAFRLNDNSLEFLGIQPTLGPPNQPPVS

| Binder | IC50 [1] [nM] | IC50 [2] [nM] |
| --- | --- | --- |
| B1 | 47 | 132 |
| B2 | 33 | 35 |
